# Measurements as given in patent US20060051295A1, “Estrogen receptor interaction with a transcription factor” (priority 2002, published 2006).
# Columns and labels:
# ERα [1] = biological target: T1, ERα (Homo sapiens, UniProt P03372); experiment: Transrepression of IL-1β induced NF-κB responsive promoter-reporters, U-2 OS transiently transfected with ERα; type: cell-based; set-up: expressed in transfected cells; conditions: ER alpha transfected, IL-1 induced
# T1 sequence (P03372 1-595): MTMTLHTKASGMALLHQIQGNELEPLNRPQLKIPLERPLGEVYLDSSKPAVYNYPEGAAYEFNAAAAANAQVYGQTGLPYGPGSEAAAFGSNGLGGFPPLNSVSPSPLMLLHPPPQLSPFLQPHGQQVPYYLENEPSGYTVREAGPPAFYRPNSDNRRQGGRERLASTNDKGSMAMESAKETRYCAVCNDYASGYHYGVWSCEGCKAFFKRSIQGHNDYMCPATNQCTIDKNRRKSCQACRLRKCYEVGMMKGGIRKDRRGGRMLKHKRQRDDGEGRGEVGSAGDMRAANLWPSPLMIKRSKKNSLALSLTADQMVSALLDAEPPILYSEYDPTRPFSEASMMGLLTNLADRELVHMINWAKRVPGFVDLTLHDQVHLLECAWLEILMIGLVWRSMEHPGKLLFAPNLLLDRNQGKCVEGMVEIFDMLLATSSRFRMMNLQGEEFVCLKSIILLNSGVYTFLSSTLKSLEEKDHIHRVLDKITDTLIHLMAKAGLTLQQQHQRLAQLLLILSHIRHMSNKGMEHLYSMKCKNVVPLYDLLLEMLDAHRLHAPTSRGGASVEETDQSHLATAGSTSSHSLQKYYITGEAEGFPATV
# Text: pKCRE-ERα, pKCRE-ERβ and pNGV1-GR contain the human wild-type estrogen receptor α (ERα), ERβ or GR respectively under control of the SV40 promoter. The pCMV4-c-Rel expression vector was produced by cloning of the coding region of c-Rel into the pCMV4 vector (Andersson et al., 1989). pGL3-ELAM, pGL3-VCAM and pGL3-ICAM have been constructed based on PCR using the sequences as outlined in appendix 1. The luciferase reporter plasmid 3*NF-κB-TK was constructed by inserting three repeats of the NF-κB binding site from the ICAM promoter (van de Stolpe et al.; J. Biol Chem. 269: 6185-6192. 1994) in front of the herpes simplex virus thymidine kinase (HSV-TK) promoter. The TK promoter was cloned into the Bgl II-site of pGL3-basic (Promega). The triple repeat of NF-κB binding sites was constructed by annealing the oligonucleotide primers 5′-[…]-3′ and 5′-[…]-3′ followed by PRC amplification and subcloning in the pCR™2.1 vector. The insert was excised using HindIII, blunted with Klenow DNA polymerase and ligated into the SmaI site of pGL3-tk-luc. 4xERE-TATA Luc (plasmid nr. 460) contains four repeats of an estrogen responsive element followed by a TATA box and a luciferase gene. The pSV-β-Galactosidase (pSVβ) control vector (Promega) served as a positive control vector for monitoring transfection efficiencies of mammalian cells. The SV40 early promoter and enhancer drive transcription of the LacZ gene which encodes the β-Galactosidase enzyme. The yeast 2-hybrid constructs pGAD424-ERα, pGAD424-ERαdAB and pGAD424-ERβ were constructed by cloning respectively the human ERα, the ERα without the AB domain and the human ERβ cDNA in pGAD424. pGAD424-ERα LBD was constructed by cloning the LBD of ERα, obtained by PCR, in the EcoRI and SalI sites of pGAD424 vector. pGBT9-c-Rel was constructed by cloning the c-Rel fragment, obtained by PCR on pCMV4-c-Rel in the EcoRI and BamHI sites of pGBT9. The p65/RelA cDNA was obtained by PCR on the pCMV4-p65.
# For transient transfections, cells were seeded in 6-well plates (2.10^5 cells/well). After two or three days the cells were transfected with reporter, expression vectors and β-galactosidase control vector. Two different experimental settings were used. For testing transrepression of IL-1β induced promoter activity, cells were transfected with 1 μg reporter construct, 1 μg expression vector (containing either ERα, ERβ or GR), and 0.25 μg of β-galactosidase control plasmid.
# ERα [2] = biological target: T1, ERα; experiment: NF-κB-responsive reporters in ECV304-ERα cells, IL-1 induced; type: cell-based; set-up: expressed in transfected cells; conditions: ECV304-ERα cells (A)
# Text: This example describes an assay, based on the E-selectin or VCAM promoter in combination with ERα in the T24/ECV cell line. Note that for the ER/NF-κB transrepression assay the ECV304 cell line was used, which was believed to be the only endothelial cell line available that was suitable for producing stable ERα expressing clones. At a later stage ATCC reported that the ECV304 cells were no endothelial cells but, instead, were T24 bladder carcinoma cells. In order to enhance the cytokine induction and amount of repression by estrogens, multiple copies of NF-κB responsive regions of the E-Selectin and VCAM promoters were used to construct new reporters named ELAM1a, ELAM2, ELAM-HMG, VCAM1-2, VCAM2, and VCAM3 (for reporter details see appendix 1).
# ECV304-ERα cells stably express ERα and endogenous c-Rel, whereas COS cells were transiently transfected with ERα, and, where indicated, c-Rel. Both cell types were co-transfected with the indicated E-selectin (ELAM) or VCAM promoter derived reporters.
# Human osteosarcoma U-2 OS (HTB-96), monkey kidney COS-1 (CRL-1650) and human ECV304 (CRL-1998) cells have been obtained from ATCC (American Type Culture collection). ECV304 cells were sold by ATCC as human endothelial cells, however at a later stage ATCC informed us that this cell line was in fact the human bladder epithelial carcinoma cell line T24. Therefore, these cells are called T24/ECV in this report. ECV304/T24(-ERα), U-2 OS and COS-7 cells were grown in a 1:1 mixture of phenol red free Dulbecco's modified medium (DMEM) and Ham's F12 medium (=M505), supplemented with 10% fetal calf serum (FCS). Experiments were performed in M505+10% FCTS (fetal calf serum treated with dextran-coated charcoal to deplete serum from steroid activity).
# The six NF-κB responsive reporters pHGL3-ELAM 1a, pHGL3-ELAM 2, pHGL3-ELAM HMG, pHGL3-VCAM 1-2, pHGL3-VCAM 2 and pHGL3-VCAM 3 (plasmid nr. 1921-1926 respectively) were constructed by ligating annealed primers in the Kpn I and Sac I sites of pHGL3-TATA. The primers were based on the NF-κB-RE sequences in the ELAM and the VCAM promoter (see Appendix 1). Several copies of the NF-κB-RE's were cloned in order the gain a higher absolute luciferase signal. The ELAM HMG construct contains a double repeat, while the other constructs contain three NF-κB -RE's. For primer and reporter sequences, see appendix 1.
# For transient transfections, cells were seeded in 6-well plates (2.10^5 cells/well). After two or three days the cells were transfected with reporter, expression vectors and β-galactosidase control vector. Two different experimental settings were used. For testing transrepression of IL-1β induced promoter activity, cells were transfected with 1 μg reporter construct, 1 μg expression vector (containing either ERα, ERβ or GR), and 0.25 μg of β-galactosidase control plasmid. For testing transrepression in combination with c-Rel or ReLA overexpression, cells were transfected with 1 μg reporter construct, 1 μg expression vector (containing either ERα, ERβ or GR) and 0.1 or 1.0 μg expression vector containing c-Rel or RelA and 0.25 μg of β-galactosidase control vector. Equivalent amounts of DNA were obtained by adding the appropriate expression vector that lacks an insert. Transient transfection was performed using lipofectin reagent (Life Technologies). […] The transfected cells were incubated overnight with test compounds prior to cell lysis. Measurement of luciferase and P-galactosidase activity were performed using respectively the luciferase assay system (Promega) and Galacto-light plus (Tropix) according to the manufacturers' protocols and measured on the Victor 1420 multilabel counter, Wallac.
# ERα [3] = biological target: T1, ERα; experiment: Stably transfected ECV304/T24-ERα-ELAM-HMG and -VCAM3 clones, luciferase activity; conditions: stable ECV304/T24-ERα clone, IL1 induced
substance,measurement,setting,value
IL-1: cytokine used to induce NF-κB responsive reporter activity,"luciferase activity, 3*NFkB-reporter",ERα [1],1836839
same,"luciferase activity, ELAM+ reporter",ERα [1],99757
same,"luciferase activity, ICAM reporter",ERα [1],908172
same,"luciferase activity, VCAM reporter",ERα [1],30296
same,"luciferase activity, ELAM1a reporter",ERα [2],1818 cps
same,"luciferase activity, ELAM2 reporter",ERα [2],39383 cps
same,"luciferase activity, ELAM− reporter",ERα [2],160167 cps
same,"luciferase activity, VCAM1-2 reporter",ERα [2],3741 cps
same,"luciferase activity, VCAM2 reporter",ERα [2],19464 cps
same,"luciferase activity, VCAM3 reporter",ERα [2],22767 cps
same,"luciferase activity, VCAM reporter",ERα [2],3099 cps
same,"luciferase activity, ELAM-HMG clone 2B8",ERα [3],8410
same,"luciferase activity, ELAM-HMG clone 2F4",ERα [3],1566
same,"luciferase activity, VCAM3 clone 3A10",ERα [3],3907
same,"luciferase activity, VCAM3 clone 4B6",ERα [3],2122
